Experimental data reported in publication PMC8819685.

Biological target: Human plasminogen (human)
Sequence (P00747 20-810): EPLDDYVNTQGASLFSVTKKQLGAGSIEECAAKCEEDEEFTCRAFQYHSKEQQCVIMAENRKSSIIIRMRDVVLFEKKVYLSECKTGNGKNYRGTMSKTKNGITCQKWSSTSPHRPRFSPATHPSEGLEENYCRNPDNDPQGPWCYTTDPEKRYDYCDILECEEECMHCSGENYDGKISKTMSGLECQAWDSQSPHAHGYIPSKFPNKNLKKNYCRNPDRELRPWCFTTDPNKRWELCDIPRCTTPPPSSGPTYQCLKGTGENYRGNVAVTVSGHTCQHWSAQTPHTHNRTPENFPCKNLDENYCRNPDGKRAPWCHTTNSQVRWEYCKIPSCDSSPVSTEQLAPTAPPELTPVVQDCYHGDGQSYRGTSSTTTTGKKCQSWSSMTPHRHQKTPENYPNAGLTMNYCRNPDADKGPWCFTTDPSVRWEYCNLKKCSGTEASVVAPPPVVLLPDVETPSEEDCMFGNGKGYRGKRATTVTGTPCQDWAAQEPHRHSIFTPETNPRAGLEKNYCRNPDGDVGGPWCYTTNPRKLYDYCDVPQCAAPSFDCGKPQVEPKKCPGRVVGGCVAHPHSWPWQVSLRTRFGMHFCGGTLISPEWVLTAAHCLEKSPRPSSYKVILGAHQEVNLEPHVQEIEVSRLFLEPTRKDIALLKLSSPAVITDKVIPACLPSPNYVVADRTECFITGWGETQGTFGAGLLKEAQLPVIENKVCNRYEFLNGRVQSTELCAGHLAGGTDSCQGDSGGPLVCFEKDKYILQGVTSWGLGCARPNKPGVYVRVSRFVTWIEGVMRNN

- plasminogen activation on fibrin plates: fibrinolytic zone of the mixture of EPF3 and plasminogen against that of EPF3 alone (3, 6, 18 h, 37°C): 20.2%
B1: EPF3, fibrinolytic protein from Pheretima vulgaris (enzyme)
chain: ILGGTEARVGEIPWQLSQQRGGSHSCGASLLRPGSALSAAHCVDGAPPADVRIVAGLHLRSDESTAVASLAESFLIHPSYNVGEGTFPNDIAIIYLLTNINSAPVENIDFALLPPDNVEQFVGFTCVLSGWGRTSASNVLPDALQKVSIDVITTAECDSRMAAVAGADCTDAHIAVFDPALQKGSCNGDSGGPMNCPLSGEFVVAGVTSWGISGGGACLPEYPSVYTRTGFYRQWIIDNIR
